Experimental data: paper PMC10838372 (Journal of inherited metabolic disease, 2023)
Positions count from the first letter of the chain named. In names and notes the source's numbering stands.

B1: dihydroorotase (DHO) domain of human CAD, wild type (domain or fragment, UniProt P27708 1456-1846, looked up)
chain: MTSQKLVRLPGLIDVHVHLREPGGTHKEDFASGTAAALAGGITMVCAMPNTRPPIIDAPALALAQKLAEAGARCDFALFLGASSENAGTLGTVAGSAAGLKLYLNETFSELRLDSVVQWMEHFETWPSHLPIVAHAEQQTVAAVLMVAQLTQRSVHICHVARKEEILLIKAAKARGLPVTCEVAPHHLFLSHDDLERLGPGKGEVRPELGSRQDVEALWENMAVIDCFASDHAPHTLEEKCGSRPPPGFPGLETMLPLLLTAVSEGRLSLDDLLQRLHHNPRRIFHLPPQEDTYVEVDLEHEWTIPSHMPFSKAHWTPFEGQKVKGTVRRVVLRGEVAYIDGQVLVPPGYGQDVRKWPQGAVPQLPPSAPATSEMTTTPERPRRGIPGLPD
modifications: carboxylated lysine (KCX) at K1556
B2: DHO domain of human CAD, variant K1482M (domain or fragment, UniProt P27708 1456-1846, looked up)
chain: B1 chain with K27M
B3: DHO domain of human CAD, variant R1722W (domain or fragment, UniProt P27708 1456-1846, looked up)
chain: B1 chain with R267W
B4: DHO domain of human CAD, variant R1810Q (domain or fragment, UniProt P27708 1456-1846, looked up)
chain: B1 chain with R355Q
B5: DHO domain of human CAD, variant R1475Q (domain or fragment, UniProt P27708 1456-1846, looked up)
chain: B1 chain with R20Q
B6: DHO domain of human CAD, variant R1617Q (domain or fragment, UniProt P27708 1456-1846, looked up)
chain: B1 chain with R162Q
B7: DHO domain of human CAD, variant R1789Q (domain or fragment, UniProt P27708 1456-1846, looked up)
chain: B1 chain with R334Q
B8: DHO domain of human CAD, variant R1785C (domain or fragment, UniProt P27708 1456-1846, looked up)
chain: B1 chain with R330C
B9: DHO domain of human CAD, variant K1556T (domain or fragment, UniProt P27708 1456-1846, looked up)
chain: B1 chain with K101T

Molecular target: the molecule itself
Experiment: SEC

Stoichiometry N, 2:
B1
B2
B3
B4
B5
B6
B7
B8
B9
